A short description of experiment [1]: Chromogenic substrate assay, protease activity of the purified recombinant cathepsins. The format is biochemical. Particulars: FIG. 1; protease 0.84 μM. As to the method: The concentrations of all the three proteases are at 0.84 μM and that of E64, a non-selective irreversible inhibitor of cysteine proteases, is at 2 μM […].
Papain served as a positive control cysteine protease. The cathepsin S and K were further evaluated for their capacity to activate PAR receptors as noted below.

The next experiment concerns human volunteers. Put plainly: Itch evoked by inactivated cowhage spicules reconstituted with cathepsin S, inserted into skin. The format is in vivo. On the procedure: Recombinant cathepsin S also evokes itch in human volunteers. In this experiment, native itch-evoking spicules from the plant Mucuna pruriens were inactivated by autoclaving for 1 hour and reconstituted with recombinant cathepsin S. Typically, 50 mg of inactivated spicules were mixed with 0.4 ml of 1 mg of recombinant cathepsin S in 0.1M NaCl with 0.01 M L-cysteine in a 2 ml microfuge tube, vortexed, dried in a Speed-vac for 2 hours at room temperature, vortexed again and transferred to a new tube. This second vortex step allowed for precipitated salt to be separated from the spicules. These spicules were then considered ‘reconstituted’ with the cathepsin S. Individual spicules were then superficially inserted approximately 0.2 mm into the skin of volunteers who rated the subsequent itch as “very strong”. The mean perceived intensity of itch and nociceptive sensation evoked by a single inactivated spicule reconstituted with cathepsin S on nine human volunteers is shown in FIG. 3A. The mean perceived intensity is similar with that for itch and nociceptive sensation evoked by a single spicule of native cowhage for the same nine volunteers.

The subject of another experiment is PAR4. Put plainly: PAR activation by cytoplasmic calcium release in transfected HeLa cells (Fura-2 ratiometric imaging), PAR4. The format is cell-based, human. On the procedure: (§1) The responses to PAR 2 and 4 were blocked by the protease inhibitor E64 (10 μM) as a control). Other controls included vector alone and vector encoding the PAR1 receptor. Cathepsin S was added as indicated. The averages from at least three separate experiments were then combined +/−SD.
(§2) Salmon sperm (SS) DNA is used as control. The averages from at least three separate experiments were then combined +/−SD.
(§3) PAR activation observed by cytoplasmic calcium release—The four human PAR cDNAs were obtained from commercial sources and cloned into the pcDNA3.1(−) vector (INVITROGEN™ Inc.). HeLa cells were transfected with 10 μg of vector cDNA using Lipofectamine 2000 (INVITROGEN™ Inc.) and cultured for two days in 96-well glass bottom plates at 30,000 cells/well. Cells were loaded with Fura-2 as follows. The medium was aspirated and replaced with 100 μl of complete DMEM containing 2 μM Fura-2 (INVITROGEN™ Inc.) and kept at room temperature in the dark for 1 hr. The medium was again aspirated and each well received 90 μl of HEPES buffered saline (20 mM HEPES, 115 mM NaCl, 5.4 mM KCl, 2 mM CaCl2, 0.8 mM MgCl2, 13.8 mM glucose, pH 7.4). Plates were observed using a Zeiss Axiovert 200M microscope equipped with a filter wheel for monitoring excitation at 340 and 380 nm. Axiovision software, version 4.6 was used to analyze ratiometric calcium imaging of the cells. […]

For another experiment, the system named is PAR2. Put plainly: PAR activation by cytoplasmic calcium release in transfected HeLa cells (Fura-2 ratiometric imaging), PAR2. The format is cell-based, human. On the procedure: as §1, §2, §3
A further experiment deals with PAR1. Put plainly: PAR activation by cytoplasmic calcium release in transfected HeLa cells (Fura-2 ratiometric imaging), PAR1. The format is cell-based, human. Particulars: HeLa cells transfected with PAR1. As to the method: as §1
as §3, with “cells. Ten μl of a 21 μM solution of recombinant human cathepsin S were applied approximately 20 seconds after the start of excitation.” for “cells.”

The mark [2] stands for this setting: cathepsin S 30 nM versus mucunain.

B1: cathepsin K: recombinant human cysteine protease, expressed in E. coli as zymogen and cleaved to active enzyme (protein)
chain: APDSVDYRKKGYVTPVKNQGQCGSCWAFSSVGALEGQLKKKTGKLLNLSPQNLVDCVSENDGCGGGYMTNAFQYVQKNRGIDSEDAYPYVGQEESCMYNPTGKAAKCRGYREIPEGNEKALKRAVARVGPVSVAIDASLTSFQFYSKGVYYDESCNSDNLNHAVLAVGYGIQKGNKHWIIKNSWGENWGNKGYILMARNKNNACGIANLASFPKM
Consider B1, for which the “capacity to cleave the chromogenic substrate Z-Phe-Arg-pNA” value in experiment [1] is “had protease activity”.

B2: cathepsin S: recombinant human cysteine protease, expressed in E. coli as zymogen and cleaved to active enzyme (protein)
chain: LPDSVDWREKGCVTEVKYQGSCGACWAFSAVGALEAQLKLKTGKLVSLSAQNLVDCSTEKYGNKGCNGGFMTTAFQYIIDNKGIDSDASYPYKAMDQKCQYDSKYRAATCSKYTELPYGREDVLKEAVANKGPVSVGVDARHPSFFLYRSGVYYEPSCTQNVNHGVLVVGYGDLNGKEYWLVKNSWGHNFGEEGYIRMARNKGNHCGIASFPSYPEI
B2: the “mean perceived intensity of itch and nociceptive sensation compared with a single spicule of native cowhage” value in the experiment on human volunteers (nine human volunteers, FIG. 3A versus 3B) was “similar”. In addition, the “itch rating by volunteers” value in the experiment on human volunteers (single reconstituted spicule inserted approximately 0.2 mm into skin) is “very strong”. The “concentration at which strong activation of PAR4 occurred (calcium flux)” value in the experiment on PAR4 (HeLa cells transfected with PAR4) amounted to 30 nM. In addition, in the experiment with PAR4 (setting [2]), the “activating concentration relative to that needed for stimulation via mucunain, PAR4” value was “at least ten-fold less”. Further, the “capacity to cleave the chromogenic substrate Z-Phe-Arg-pNA” value in experiment [1] was “had protease activity”. For the same molecule, the “concentration at which strong activation of PAR2 occurred (calcium flux)” value in the experiment with PAR2 (HeLa cells transfected with PAR2) came to 30 nM. Moreover, the “activating concentration relative to that needed for stimulation via mucunain, PAR2” value with PAR2 (setting [2]) is reported as “at least ten-fold less”. In addition, the “activation of PAR1 (calcium flux)” value in the experiment on PAR1 is recorded as “no activation”.
